Tests used:
[1] = Apparent molecular mass by gel filtration (Bio-Prep SE 100/17); type: physicochemical
Source text: FIG. 6: Gel filtration profiles of streptavidin muteins. FIG. 6A. […] Bovine gamma-globulin (158 kDa), bovine serum albumin (66 kDa), ovalbumin (44 kDa), myoglobin (17 kDa) and vitamin B-12 (1.35 kDa) were used as molecular mass markers (closed circles) to calibrate the column. The logarithm of molecular mass was plotted versus Kav (Kav=(Ve−Vo)/(Vt−Vo); Ve, elution volume; Vo, void volume; Vt, bed volume). Positions of wild-type streptavidin (wt) and streptavidin muteins are represented by solid squares. FIG. 6B. Elution profile of M4 mutein (loaded at 2 mg/ml) on the gel filtration column.
(§1) Molecular mass of purified streptavidin and its muteins was estimated by both gel filtration and dynamic light scattering studies. Gel filtration was performed on the Bio-Rad biologic workstation equipped with a Bio-Prep SE 100/17 column that had been calibrated with molecular mass protein markers (Bio-Rad). Molecular mass was also estimated from the hydrodynamic radius of the mutein obtained using a DynaPro MS dynamic light scattering instrument (Protein Solutions, USA) that had been calibrated with lysozyme. Protein samples (2-3 mg/ml in PBS) were passed through a 0.02 μm filter (Whatman Anodisc 13) immediately prior to measurement. The size distribution profile was analyzed using the manufacturer's Dynamics V6 software.

[2] = Dynamic light scattering (hydrodynamic radius, estimated molecular mass); type: physicochemical; details: for M (kDa) (Dynamic light scattering): calculated from measured RH using a protein calibration curve
Procedure: as §1

proteinase K = experiment: Proteinase K digestion of streptavidin and its muteins; type: biochemical; details: independent of the presence or absence of biotin; 5 μM proteinase K, 15 min, 30° C.
Procedure: Purified streptavidin and its muteins (30 μM monomer) were treated with proteinase K (Invitrogen, 5 μM) for 15 min at 30° C. in 50 mM Tris-HCl containing 5 mM CaCl2, pH 8.0. The reaction was stopped by precipitation with trichloroacetic acid (Ellison, 1995). Boiled samples of precipitated proteins were resolved by reducing SDS-PAGE. The same analysis was performed with streptavidin samples treated with biotin (1 mM final concentration) prior to proteinase K digestion.

Solubility of mutein = type: physicochemical; details: at a concentration of 2 mg/ml
[3] = tested on: Biotin-conjugated bovine serum albumin; experiment: Kinetic analysis by surface plasmon resonance BIAcoreX biosensor; type: binding; details: interaction with biotin
Procedure: FIG. 8: Kinetic parameters for the interaction between M4 streptavidin mutein and biotin as monitored by BIAcore biosensor. A. On-rate (ka) determination. ka is derived from association analysis. kd is the slope of the plot of In(Ro/Rt) versus (t−to) where Ro is the response at an arbitrary starting time to; Rt is the response at time t.
The kinetic parameters (both on- and off-rates for interaction with biotin) of streptavidin muteins were determined in real time using the surface plasmon resonance based BIAcoreX biosensor. Biotin-conjugated bovine serum albumin immobilized on CM5 sensor chip was used to study the reversibility of biotin binding (Qureshi, 2001).

[4] = Cross-linking reactions with sulfo-EGS; type: physicochemical; details: 10-fold molar excess sulfo-EGS, 30 min, room temperature
Procedure: Cross-linking of streptavidin and its muteins was carried out using sulfo-EGS [ethylene glycolbis(sulfosuccinimidyl succinate)] (Pierce) as the cross-linker. A typical reaction mixture (20 μl) contained the purified mutein (0.2 5 mg/ml) and sulfo-EGS (10-fold molar excess over the protein) in PBS. After 30 min at room temperature, the reaction was quenched with Tris-HCl (30 mM, pH 7.5). Aliquots of the cross-linking reaction samples were boiled and examined by SDS-PAGE. Lysozyme (Sigma, 0.25 mg/ml) was included in the study to help establish the optimal reaction conditions.

[5] = Degree of monomerization of non-boiled samples in SDS-PAGE / Western blot; type: physicochemical
Procedure: FIG. 3: Western blot analysis of cell culture supernatants from B. subtilis strains producing streptavidin muteins carrying a single mutation. 15 μl of non-boiled sample of culture supernatant was loaded to each lane. Samples on the left set were collected from B. subtilis strains cultured in super-rich medium without additional supplement of biotin. Samples on the right set were collected from B. subtilis strains cultured in super-rich medium with additional supplementation of biotin (20 μM). The blot was probed with polyclonal antibodies against streptavidin and developed using 4-chloro-1-napthol (Bio-Rad) as the colour development agent. […] M, molecular weight markers; wt, wild type streptavidin.
FIG. 4: Analysis of culture supernatants from B. subtilis strains producing streptavidin muteins carrying different combinations of mutations. All these strains were cultivated in super-rich medium supplemented with biotin (20 μM). The 15 μl of non-boiled samples of culture supernatants were loaded. FIG. 4A. Coomassie blue stained SDS-polyacrylamide gel. […]
Streptavidin muteins carrying a single amino-acid change at the selected site may be produced in their soluble form by B. subtilis via secretion. […] Since biotin can strengthen subunit interaction, samples were analyzed in the presence or absence of biotin (Laitinen, 2001; Gonzalez, 1999). […]

kd, off-rate [3]: 3.39 ± 0.02 × 10^−3 s^−1
B1: M4: monomeric streptavidin quadruple mutant carrying T76R, V125R, V55T and L109T mutations (protein)
chain: MNIKKFAKQATVLTFTTALLAGGATQAFADPSKDSKAQVSAAEAGITGTWYNQLGSTFIVTAGADGALTGTYESAVGNAESRYTLTGRYDSAPATDGSGTALGWRVAWKNNYRNAHSATTWSGQYVGGAEARINTQWTLTSGTTEANAWKSTLRGHDTFTKVKPSAASIDAAKKAGVNNGNPLDAVQQ
modifications: Amino acid sequence for secretory production of streptavidin M4 in B. subtilis
notes: monomeric streptavidin quadruple mutant carrying T76R, V125R, V55T and L109T mutations
M (kDa) (Gel filtration) ([1]; +biotin): 24.54 kDa
M (kDa) (Gel filtration) ([1]; no biotin): 21.87 kDa
RH (nm) (Dynamic light scattering) ([2]; +biotin): 2.20 ± 0.14 nm
M (kDa) (Dynamic light scattering) ([2]; +biotin): 21.5 kDa
RH (nm) (Dynamic light scattering) ([2]; no biotin): 2.08 ± 0.31 nm
M (kDa) (Dynamic light scattering) ([2]; no biotin): 18.1 kDa
Susceptibility to proteinase K digestion (proteinase K): completely digested
solubility (Solubility of mutein): excellent solubility
ka, on-rate [3]: 1.80 ± 0.04 × 10^4 M^−1s^−1
Oligomeric state after cross-linking with sulfo-EGS (SDS-PAGE) [4]: migrated as monomers
Monomer (percentage of streptavidin in monomeric state) ([5]; No additional biotin): 100%
Monomer (percentage of streptavidin in monomeric state) ([5]; With additional biotin (20 μM)): 100%

Reference: patent US20060246519A1, “MONOMERIC STREPTAVIDIN MUTEINS” (priority 2005, published 2006)
